Measurements: patent US20240043505A1 (UNIVERSITY OF PITTSBURGH OF THE COMMONWEALTH SYSTEM OF …, published 2024)
Positions count from the first letter of the chain named. Values joined by “and” are separate entries in the source; they are usually repeats but may differ in a detail not shown here. Equal values may be shown once.

B1: Nb89 (VHH)
VHH: HVQLVESGGGLVQAGGSLRLSCAASGGTFTTFRMAWFRQTPGKEREFVAASSWGFVNYADPVKGRFTISRDNAKNTVYLEMSSLKTEDTAVYYCAARNPGTGQYDYWGQGTQVTVSS
B2: Nb89 (VHH)
VHH: B1 VHH
B3: Nb89 (VHH)
VHH: B1 VHH
B4: Nb17 (VHH)
VHH: HVQLVESGGGLVQAGGSLRLSCAASGSIFSSNAMSWYRQAPGKQRELVASITSGGNADYADSVKGRFTISRDKNTVYPEMSSLKPADTAVYYCHAVGQEASAYAPRAYWGQGTQVTVSS
B5: Nb17 (VHH)
VHH: B4 VHH
B6: Nb34 (VHH)
VHH: DVQLVESGGGLVQAGGSLRLSCAASGFTFSNYVMYWGRQAPGKGREWVSGIDSDGSDTAYASSVKGRFTISRDNAKNTLYLQMNNLKPEDTALYYCVKSKDPYGSPWTRSEFDDYWGQGTQVTVSS
B7: Nb34 (VHH)
VHH: B6 VHH
B8: Nb16 (VHH)
VHH: DVQLVESGGGLVQAGESLRLSCAASGDMFSSNAMAWYRQAPGKQRELVASITSGGNTNYADSVKGRFTISRDNAKNTVYLQMDSLKPEDTAVYYCNGVAYDYSWGRPRNFWGQGTQVTVSS
B9: Nb36 (VHH)
VHH: HVQLVESGGGLVQAGGSLTLTCAASGRTFSSETMDMGWFRQAPGKEREFVAADSWNDGSTYYADSVKGRFTISRDSAKNTLYLQMNSLKPEDTAVYYCAAETYSIYEKDDSWGYWGQGTQVTVSS
B10: Nb9 (VHH)
VHH: HVQLVESGGGLVQTGGSLRLSCAFSGYTFSTFPTAWFRQAPGKEREFVAGIRWNGGSRDYTEYADFVKGRFTISRDNAKNMIYLQMISLKPEDTALYYCAASHGVVDGTSVNGYRYWGQGTQVTVSS
B11: Nb105 (VHH)
VHH: HVQLVESGGGLVQAGGSLRLSCAVSGRTFSTYGMAWFRQAPGKERDFVATITRSGETTLYADSVKGRFTISRDNAKNTVYLQMNSLKIEDTAVYYCAVRRDSSWGYSRDLFEYDYWGQGTQVTVSS
B12: Nb105 (VHH)
VHH: B11 VHH
B13: Nb20 (VHH)
VHH: QVQLVESGGGLVQAGGSLRLSCAVSGAGAHRVGWFRRAPGKEREFVAAIGASGGMTNYLDSVKGRFTISRDNAKNTIYLQMNSLKPQDTAVYYCAARDIETAEYIYWGQGTQVTVSS
B14: Nb21 (VHH)
VHH: B13 VHH with A27L, S52N, M55N, I105T
B15: Nb78 (VHH)
VHH: B13 VHH with V24I, G28S, H30N, I77V, D98N, I105T
B16: Nb20 (VHH)
VHH: B13 VHH
B17: Nb21 (VHH)
VHH: B13 VHH with A27L, S52N, M55N, I105T
B18: Nb11 (VHH)
VHH: HVQLVESGGGLVQAGGSLRLSCAVSGASAERVGWFRRAPGKEREFVAAIGANGGSTNYLDSVKGRFTISRDNAKNTVYLQMNSLKPQDTAVYYCAARNLETFDYTYWGRGTQVTVSS
B19: Nb95 (VHH)
VHH: QVQLVESGGGLVQAGGSLRLSCAASGRTFSSYSMGWFRQAQGKEREFVATINGNGRDTYYTNSVKGRFTISRDDATNTVYLQMNSLKPEDTAIYYCAADKDVYYGYTSFPNEYEYWGQGTQVTVSS
B20: Nb95 (VHH)
VHH: B19 VHH

Tests used:
[1] = target: SARS-CoV-2 spike receptor-binding domain (RBD), recombinant (SARS-CoV-2, UniProt P0DTC2 319-541); assay: SPR (Biacore 3000), RBD immobilized on the chip, Nb as analyte, 1:1 Langmuir fit
[2] = target: SARS-CoV-2 spike glycoprotein on authentic SARS-CoV-2 (Munich strain, SARS-CoV-2/München-1.1/2020/929) (SARS-CoV-2, UniProt P0DTC2 14-1273); assay: cell-based or functional assay
[3] = target: SARS-CoV-2 spike glycoprotein on pseudotyped SARS-CoV-2 (Wuhan-Hu-1 strain) particles (SARS-CoV-2, UniProt P0DTC2 14-1273); assay: cell-based or functional assay
[4] = target: T1, SARS-CoV-2 Munich strain spike glycoprotein on authentic virus (SARS-CoV-2); assay: cell-based or functional assay
[5] = target: T2, SARS-CoV-2 (Wuhan-Hu-1 strain) spike glycoprotein on pseudotyped virus particles (SARS-CoV-2, UniProt P0DTC2 14-1273); assay: cell-based or functional assay
[6] = target: T2, SARS-CoV-2 (Wuhan-Hu-1 strain) spike …; assay: cell-based or functional assay; remark: listed apart in the source
[7] = target: T3, SARS-CoV-2 spike receptor-binding domain (RBD) (SARS-CoV-2, UniProt P0DTC2 319-541); assay: SPR (Biacore 3000), RBD immobilised, Nb as analyte, 1:1 Langmuir fit
[8] = target: T3, SARS-CoV-2 spike receptor-binding …; assay: indirect ELISA, RBD coated on plate, 4PL fit
[9] = target: SARS-CoV-2 spike glycoprotein on authentic virus (Munich strain) (SARS-CoV-2 (Munich strain), UniProt P0DTC2 14-1273); assay: cell-based or functional assay
[10] = target: SARS-CoV-2 spike glycoprotein (Wuhan-Hu-1 strain) on pseudotyped virus particles (SARS-CoV-2 (Wuhan-Hu-1 strain), UniProt P0DTC2 14-1273); assay: cell-based or functional assay
SARS-CoV RBD = SARS-CoV RBD (SARS-CoV, UniProt P59594 306-527)
[11] = target: T1, SARS-CoV-2 Munich strain spike …; assay: cell-based or functional assay; remark: listed apart in the source

Row | Binder | Authentic virus PRNT IC50 [4] | Pseudo-neut IC50 Luciferase [5] | ELISA affinity [8] | Authentic virus PRNT IC50 [9] | Pseudo-neutralization IC50 (Luciferase) [10] | other results
1 | B1 |  |  |  |  |  | Kd [1]: 0.108 nM; koff [1]: 0.000624 s⁻¹; Authentic virus PRNT IC50 [2]: 0.154 nM; Pseudo-neutralization (GFP) [3]: < 0.5 nM; Pseudo-neutralization IC50 (Luciferase) [3]: 0.129 nM
2 | B2 | 0.154 nM | 0.133 nM |  |  |  | Pseudo-neutralization (GFP) [5]: < 0.5 nM; IC50, pseudovirus assay [6]: 2 ng/ml and 0.129 nM
3 | B3 |  |  | 1.09 nM |  |  | kon [7]: 5.78e+06 M⁻¹ s⁻¹
4 | B4 | 1.5 nM | 1.11 nM |  |  |  | IC50, virus neutralization in vitro (assay not stated) [6]: ~25 ng/mL; neutralization of SARS-CoV-2 (assay not stated) [6]: ≤ 100 ng/mL
5 | B5 |  |  |  | 1.5 nM | 1.1 nM | 
6 | B6 |  |  | 0.47 nM | 1.12 nM | 2 nM | 
7 | B7 | 1.12 nM | 1.99 nM |  |  |  | neutralization of SARS-CoV-2 (assay not stated) [6]: < 150 ng/mL
8 | B8 |  |  | 0.37 nM | 3.16 nM | 1.57 nM | 
9 | B9 |  | 1.56 nM |  |  |  | neutralization of SARS-CoV-2 (assay not stated) [6]: ≤ 100 ng/mL
10 | B10 |  |  | 0.89 nM | 1.72 nM | 1.5 nM | 
11 | B11 |  |  |  |  |  | Authentic virus PRNT IC50 [2]: 5.1 nM; Pseudo-neutralization IC50 (Luciferase) [3]: 5 nM
12 | B12 | 5.07 nM | 5.11 nM |  |  |  | neutralization of SARS-CoV-2 (assay not stated) [6]: < 150 ng/mL; IC50 (SARS-CoV RBD): 3.76 nM
13 | B13 |  |  |  | 0.0422 nM | 0.114 nM | Pseudo-neutralization (GFP) [10]: < 0.5 nM
14 | B14 | 0.022 nM | 0.0495 nM |  |  |  | Pseudo-neutralization (GFP) [5]: < 0.5 nM; IC50, SARS-CoV-2 PRNT [11]: 0.021 nM; IC50, pseudovirus assay [6]: 0.7 ng/ml and 0.045 nM
15 | B15 |  |  | 0.61 nM | 0.766 nM | 0.509 nM | 
16 | B16 |  | 0.102 nM |  |  |  | Pseudo-neutralization (GFP) [5]: < 0.5 nM; IC50, pseudovirus assay [6]: 1.6 ng/mL
17 | B17 |  |  |  | 0.0448 nM | 0.038 nM | Pseudo-neutralization (GFP) [10]: < 0.5 nM
18 | B18 |  |  | 0.39 nM | 0.78 nM | 1 nM | 
19 | B19 |  |  |  |  |  | Authentic virus PRNT IC50 [2]: 5.11 nM; Pseudo-neutralization IC50 (Luciferase) [3]: 10 nM
20 | B20 | 5.11 nM | 10 nM |  |  |  | neutralization of SARS-CoV-2 (assay not stated) [6]: < 150 ng/mL; IC50 (SARS-CoV RBD): 31.6 nM
